The conditions of this data set: Canavalia ensiformis, pH 7, Fluorescence, HEPES 25 mM, CaCl2 15 mM, reversible: yes, whole UniProt chain shown; for denaturant m value: GdnHCl.

From FireProtDB (doi:10.1529/biophysj.104.051052) come the findings set out here.

B1: Concanavalin-A wild type, P02866 (protein)
chain: MAISKKSSLFLPIFTFITMFLMVVNKVSSSTHETNALHFMFNQFSKDQKDLILQGDATTGTDGNLELTRVSSNGSPQGSSVGRALFYAPVHIWESSAVVASFEATFTFLIKSPDSHPADGIAFFISNIDSSIPSGSTGRLLGLFPDANVIRNSTTIDFNAAYNADTIVAVELDTYPNTDIGDPSYPHIGIDIKSVRSKKTAKWNMQNGKVGTAHIIYNSVDKRLSAVVSYPNADSATVSYDVDLDNVLPEWVRVGLSASTGLYKETNTILSWSFTSKLKSNEIPDIATVV
For the protein B1, the denaturant m value is 1.3 kcal/mol/M (7 °C); 1.6 kcal/mol/M (12 °C); 1.8 kcal/mol/M (18 °C); 2.1 kcal/mol/M (27 °C); 2.3 kcal/mol/M (30 °C); 2.2 kcal/mol/M (39 °C). The Tm (Thermal) turned out to be 98.5 °C. The “heat capacity change of unfolding” value (Thermal) was 4.2 kcal/mol/K. In addition, the “unfolding enthalpy (van 't Hoff)” value (Thermal) was determined as 179 kcal/mol.
